Laboratory results published in the supplement of paper PMC10724198.
± gives the standard deviation of the averaged measurements.

Tested on: Saccharomyces cerevisiae
Test: protein stability index of tFT-peptide fusion (C-terminal peptide) (PSI (0-1 scale)); higher = more stable (slower turnover)
Conditions: genetic background: wild type; temperature: 30 C
Experimental: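 Multiplexed protein stability (MPS) profiling in S. cerevisiae. Random 12-aa peptides (tFT-X12 library) are fused to the C-terminus of a sfGFP-mCherry tandem fluorescent timer, after mCherry and a GGGS linker. Cells are FACS-sorted into 8 mCherry/sfGFP bins and deep-sequenced. The protein stability index (PSI) is the read-weighted bin average, scaled from 0 (unstable) to 1 (stable). Only peptides with >10 reads are reported; cells were grown at 30 °C in SC-His with glucose.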
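Also: PSI is a weighted mean of sequencing reads over stability bins, variants kept only with over 10 reads, mCherry proximal and sfGFP distal, peptide attached via GGGS linker.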

Sequence | protein stability index
FCGDDVCLTHFG | 0.729 ± 0.029
FCLGSVIWERDS | 0.625 ± 0.076
FCLLSCDTFSSS | 0.6318 ± 0.0042
FCLPVFCVPSHF | 0.634 ± 0.11
FCRKVFFALRRF | 0.612 ± 0.095
FCSCSCEFVPRS | 0.618 ± 0.039
FCSLLDSLVGGC | 0.745 ± 0.072
FCSQNLQMNQLS | 0.6 ± 0.041
FCVFSDVSRFSY | 0.701 ± 0.082
FCVVGKGWKGEG | 0.626 ± 0.0098
FCWLCRFADSPF | 0.733 ± 0.078
FDDSNSRTGPVQ | 0.692 ± 0.11
FDGRVTALRVRL | 0.724 ± 0.033
FDITGAGLDSSF | 0.7904 ± 0.0053
FDSSLFTVSQYH | 0.768 ± 0.084
FDSYVNHRLNRD | 0.608 ± 0.057
FDVAPTSRVNFL | 0.724 ± 0.06
FERRGSSFWGGC | 0.7 ± 0.032
FESGINWLLSDK | 0.672 ± 0.06
FFACHDGYWCGC | 0.778 ± 0.036
FFAGELGVYCLV | 0.596 ± 0.033
FFAPSRLHHLSL | 0.772 ± 0.071
FFFPLLLLSPPI | 0.535 ± 0.015
FFGGAGGTEGLG | 0.689 ± 0.048
FFMNGLWGLSVR | 0.612 ± 0.0092

Sequence | protein stability index
FFPARPPPPPPR | 0.769 ± 0.04
FFPELSNLHPPS | 0.708 ± 0.017
FFPFSLFPLPPS | 0.744 ± 0.066
FFPPPSSFCLSL | 0.772 ± 0.069
FFRSFVVGSVLV | 0.567 ± 0.0064
FFSPSSVSVGVR | 0.65 ± 0.076
FFSRSPVFSFDF | 0.8218 ± 0.0017
FFSSSDRQLSNQ | 0.716 ± 0.041
FFSSTVFLLFLP | 0.569 ± 0.025
FFTPSKQSQAYC | 0.662 ± 0.027
FFVIIPAKSWLG | 0.546 ± 0.03
FFVRCTEWLGED | 0.6161 ± 0.0039
FGAEWRGVLSGC | 0.773 ± 0.013
FGARVWVGRVGG | 0.657 ± 0.069
FGCCCGGGLLGV | 0.711 ± 0.027
FGCRARYDLVLI | 0.641 ± 0.098
FGFHSLSISFFM | 0.611 ± 0.035
FGFLELTDPHGC | 0.576 ± 0.023
FGGFVPSSQCLI | 0.712 ± 0.018
FGGGGLAPSLQS | 0.602 ± 0.044
FGGKLVTHGISY | 0.673 ± 0.054
FGGTAVAGLFDL | 0.725 ± 0.061
FGIRGMTSVGSP | 0.675 ± 0.088
FGKWSWGECEGS | 0.69 ± 0.032
FGLPFPSNIVSG | 0.757 ± 0.024

Sequence | protein stability index
FGLPGGVTVVTW | 0.757 ± 0.14
FGQSKFAMKGVR | 0.708 ± 0.0086
FGRAGAGERRGA | 0.722 ± 0.28
FGRSGDGVGGLA | 0.667 ± 0.026
FGRVRFCFRMRS | 0.671 ± 0.025
FGSSLVVSMVFD | 0.704 ± 0.015
FGTATPPPTLPP | 0.727 ± 0.02
FGVLGCGFLLSL | 0.688 ± 0.018
FGVVCIGVLGGV | 0.5361 ± 0.0014
FGVVLEGAGWGG | 0.73742 ± 0.00056
FGYAGGSRVLGS | 0.68 ± 0.0095
FGYCFYRFHLQR | 0.666 ± 0.049
FGYGLPFPERVE | 0.781 ± 0.046
FHPTCAPLPCPP | 0.663 ± 0.038
FHPVLPMSFRHV | 0.666 ± 0.029
FHSRGVASPQPP | 0.682 ± 0.018
FHTLCLGPCTVI | 0.675 ± 0.035
FISVFALWDVFL | 0.7 ± 0.01
FISYFRFDRFGS | 0.699 ± 0.029
FKVVLGRLGVRA | 0.53638 ± 6.4e-06
FLAPPPDVGQLV | 0.692 ± 0.038
FLCNSVAGSLCI | 0.643 ± 0.022
FLCSLAPHRPLL | 0.704 ± 0.033
FLFHAIGTCRLC | 0.671 ± 0.015
FLFLTCPFSFSF | 0.633 ± 0.018

Sequence | protein stability index
FLFVVSFGGAVA | 0.512 ± 0.0061
FLGGDVVGVFVG | 0.658 ± 0.059
FLISLPLPAPLP | 0.679 ± 0.013
FLLCLWIFFFGS | 0.482 ± 0.028
FLLFIRGFSGCR | 0.624 ± 0.018
FLLVCLNDVLRP | 0.588 ± 0.062
FLPLPRPRLLLP | 0.617 ± 0.0076
FLPPPPTPSPPY | 0.723 ± 0.043
FLPPPPVLPSLP | 0.697 ± 0.024
FLPTALTQPLIT | 0.624 ± 0.028
FLQIPVQILPDP | 0.705 ± 0.027
FLRLSPQFASFP | 0.677 ± 0.083
FLSWSLPCITFR | 0.571 ± 0.051
FLTCTTSLPFVP | 0.728 ± 0.13
FLVSPFTLFPFS | 0.754 ± 0.12
FMHCLLAQFAGL | 0.705 ± 0.11
FNSFPPSPSLRP | 0.729 ± 0.012
FNVSCLRPNMGE | 0.712 ± 0.044
FPATSTCTFALY | 0.665 ± 0.0012
FPCVAVFVESNR | 0.647 ± 0.049
FPFSSFSGRCVD | 0.6697 ± 0.0042
FPHRHAPYPSAI | 0.7 ± 0.035
FPLIFALFPTFF | 0.603 ± 0.0067
FPLPPHSSPLPP | 0.695 ± 0.037
FPPHPPPPPPLN | 0.743 ± 0.041

Sequence | protein stability index
FPPLIPLPINHP | 0.631 ± 0.1
FPPLLASPPPSP | 0.705 ± 0.011
FPPLRSLPPTPP | 0.793 ± 0.12
FPPPLCLHRPIP | 0.786 ± 0.1
FPPPLHFPPLPA | 0.723 ± 0.055
FPPPPPRPPRLP | 0.68 ± 0.075
FPPPPRPPLSFP | 0.711 ± 0.078
FPPPSPPPLSPC | 0.689 ± 0.024
FPQHPLFDPPAF | 0.793 ± 0.013
FPRLTYAPFLAD | 0.722 ± 0.02
FPRPLPPLSPLL | 0.7162 ± 0.0037
FPSCSAGLHLNL | 0.7521 ± 0.0034
FPSFHLCNIPST | 0.757 ± 0.076
FPSPPPGPHPSP | 0.76336 ± 0.00013
FPSSLPSAFPCP | 0.675 ± 0.016
FPSSPPAHAAPH | 0.68 ± 0.019
FPVWVKGLLGMG | 0.636 ± 0.048
FQPQPSPAHPSH | 0.693 ± 0.023
FRFNPGSCSRPV | 0.681 ± 0.016
FRLICSRQFFAG | 0.593 ± 0.018
FRPLPPPPPSPT | 0.672 ± 0.052
FRQQGGERVRWG | 0.66 ± 0.0088
FRSPRFLRSPPR | 0.793 ± 0.064
FRTLVEAGSLMD | 0.6995 ± 0.00077
FRVEWKPLYHGI | 0.623 ± 0.037

Sequence | protein stability index
FRVHSFRLSCLS | 0.574 ± 0.022
FSAVRIQASLRW | 0.629 ± 0.028
FSCPALCSCLAV | 0.604 ± 0.087
FSFLFSFFFSFL | 0.55971 ± 7.1e-07
FSFVPRHGVSFR | 0.6349 ± 0.0059
FSFVTFYSICDV | 0.528 ± 0.012
FSGGGRGLGGEV | 0.684 ± 0.024
FSHRPSPLSLSL | 0.719 ± 0.11
FSKSRLRNLKLK | 0.655 ± 0.016
FSLGQCLFGLWV | 0.612 ± 0.026
FSLHPGTYLVVL | 0.5913 ± 0.0026
FSLSVVGLSRWG | 0.78 ± 0.1
FSLTPSDPFPPA | 0.681 ± 0.043
FSLYSFSSSFSF | 0.677 ± 0.033
FSPLARMGSGTL | 0.701 ± 0.0073
FSPPSPPHPSPL | 0.741 ± 0.023
FSPSPPPPAPLH | 0.729 ± 0.13
FSRCRRGLVLCL | 0.479 ± 0.045
FSRLNAKLPCLA | 0.579 ± 0.06
FSSSSVRINLGV | 0.663 ± 0.01
FSTIWSLPLSPR | 0.716 ± 0.038
